Data from FireProtDB (doi:10.1002/pro.342).

Details: Escherichia coli, pH 6.3, CD, Phosphate 50 mM, NaCl 300 mM, whole UniProt chain shown

B1: Regulatory protein rop wild type, P03051 (protein)
chain: MTKQEKTALNMARFIRSQTLTLLEKLNELDADEQADICESLHDHADELYRSCLARFGDDGENL
Thermal
  Tm: 70 °C
  heat capacity change of unfolding: 1.1 kcal/mol/K
  unfolding enthalpy (van 't Hoff): 65 kcal/mol
Urea
  denaturant m value: 2.1 kcal/mol/M
  denaturant midpoint (higher = more stable): 4.6 M
  unfolding free energy: 16 kcal/mol
